Values quoted from earlier work as cited in article PMC6944378.

Molecular target: MASP-2 (Homo sapiens) (UniProt O00187)
Assay: SPR

Chain of MASP-2 (Homo sapiens) (O00187 16-686): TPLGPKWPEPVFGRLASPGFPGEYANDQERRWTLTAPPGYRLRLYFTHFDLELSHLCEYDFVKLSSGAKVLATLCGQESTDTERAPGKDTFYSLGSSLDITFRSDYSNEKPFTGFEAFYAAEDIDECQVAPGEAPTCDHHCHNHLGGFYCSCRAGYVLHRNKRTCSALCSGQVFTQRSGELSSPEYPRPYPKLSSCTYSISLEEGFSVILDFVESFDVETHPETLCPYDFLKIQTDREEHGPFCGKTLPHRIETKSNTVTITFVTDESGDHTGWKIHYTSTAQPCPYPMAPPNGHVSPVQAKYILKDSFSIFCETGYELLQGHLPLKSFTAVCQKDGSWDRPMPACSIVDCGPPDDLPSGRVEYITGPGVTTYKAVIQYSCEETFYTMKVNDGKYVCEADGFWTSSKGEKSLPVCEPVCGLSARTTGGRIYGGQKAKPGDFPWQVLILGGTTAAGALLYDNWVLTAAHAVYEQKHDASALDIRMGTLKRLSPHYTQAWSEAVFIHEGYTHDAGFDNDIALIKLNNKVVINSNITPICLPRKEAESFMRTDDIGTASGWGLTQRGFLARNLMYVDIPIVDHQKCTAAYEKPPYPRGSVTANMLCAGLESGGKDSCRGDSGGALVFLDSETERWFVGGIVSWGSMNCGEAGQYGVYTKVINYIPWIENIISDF

ecotin (from UniProt P23827)
Kd: 24.7 nM
